Reference: paper PMC6009666, “DNA-mediated dimerization on a compact sequence signature controls enhancer engagement and regulation by FOXA1”

T1: FOXA1 DBD (Homo sapiens, UniProt P55317 158-272)
T1 sequence: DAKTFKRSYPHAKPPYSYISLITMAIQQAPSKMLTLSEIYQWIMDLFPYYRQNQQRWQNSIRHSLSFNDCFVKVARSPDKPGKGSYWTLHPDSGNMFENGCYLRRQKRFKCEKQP

B1: FOXA1 monomer element (dsDNA)
DNA 1: CCGCCGCCGTGTTTACTTTGCCGCCGCC
DNA 2: GGCGGCGGCAAAGTAAACACGGCGGCGG

What was measured:
FOXA1 DBD [1] = molecular target: T1, FOXA1 DBD; experiment: EMSA; settings: monomer binding not affected; EMSA: 20 mM Tris-HCl pH 8.0, 100 mM KCl, 50 uM ZnCl2, 0.1 mg/ml BSA, 10% glycerol, 0.1% Igepal CA630, 2 mM beta-mercaptoethanol, 1 h at 4 C; 1-100 nM dsDNA; 12%
FOXA1 DBD [2] = molecular target: T1, FOXA1 DBD; experiment: EMSA; 1 nM DNA; monomer; n=3; EMSA: 20 mM Tris-HCl pH 8.0, 100 mM KCl, 50 uM ZnCl2, 0.1 mg/ml BSA, 10% glycerol, 0.1% Igepal CA630, 2 mM beta-mercaptoethanol, 1 h at 4 C; 1-100 nM dsDNA; 12% native PAGE (6% for full length); settings: protein: recombinant; tags: His-tag implied (pNic28-Bsa4, Ni-NTA); label: 5' Cy5 forward strand

Molecule	binding signal (fold reduction of omega vs major allele) (FOXA1 DBD [1])	Kd (FOXA1 DBD [2]) [nM]
rs2941742 minor allele	20	–
B1	–	2.4 ± 1.06
